Reference: patent US20080274112A1, “Nogo Receptor Antagonists” (priority 2003, published 2008)
“Also recorded” adds a separate entry of the source.

How the values were obtained:
MAG + sNogoR344-Fc = target: T1, MAG + sNogoR344-Fc (Rattus norvegicus, UniProt Q99M75, A303T/C287S/C43R/E284G/T53A); assay: mAb/Fab inhibition of MAG binding to sNogoR344-Fc (ELISA)
T1 construct: amino acid residues 26-344 of rat Nogo receptor-1; made in house
T1 sequence (Q99M75 26-344 C43R/T53A/E284G/C287S/A303T): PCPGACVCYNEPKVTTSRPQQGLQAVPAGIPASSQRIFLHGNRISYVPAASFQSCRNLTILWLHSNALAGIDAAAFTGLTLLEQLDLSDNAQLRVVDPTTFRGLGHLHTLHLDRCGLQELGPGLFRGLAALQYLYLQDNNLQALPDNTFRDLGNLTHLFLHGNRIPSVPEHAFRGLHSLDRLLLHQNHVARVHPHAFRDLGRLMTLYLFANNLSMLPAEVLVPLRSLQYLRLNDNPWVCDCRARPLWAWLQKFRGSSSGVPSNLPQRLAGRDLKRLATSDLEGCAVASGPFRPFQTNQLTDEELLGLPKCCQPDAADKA
Method: (§1) 0.5 μg of a soluble Nogo receptor-1 fusion protein comprising amino acid residues 26-344 of rat Nogo receptor-1 and the hinge and Fc region of the rat IgG1 molecule (sNogoR344-Fc) produced as described below was immobilized on 250 μg of protein-A- or wheatgerm agglutinin-conjugated SPA beads (Amersham Pharmacia Biotech) for 2 hours at 25° C. SPA beads coupled with Fc-sNogoR-1, anti-Nogo receptor-1 mAb and 1 μl ^125I-Nogo66 (Amersham, 2000 Ci/mmol, 1 nM) in 50 μl of the HEPES-buffered incubation medium (10 mM HEPES, pH 7.4, 0.1% bovine serum albumin, 0.1% ovalbumin, 2 mM MgCl2, 2 mM CaCl2 and protease inhibitors) was added to each sample well. After 16 hours, radioactivity was measured in quadruplicate samples using a TopCount® (Packard). IC50 values were calculated from a curve-fit analysis (FIG. 3) (PRISM, GraphPad Software, NJ). In some experiments, we also used AP-ligand conjugates (e.g. AP-Nogo66) and detected binding by monitoring alkaline phosphatase activity. We also assayed the ability of the mAbs to block binding of the ligands MAG-Fc and AP-OM-gp to Nogo receptor-1.
The calculated IC50 for Nogo66 for 7E11 and 1H2 were 400 nM and 60 nM, respectively. The data from ELISAs monitoring mAb-mediated inhibition of binding of the three ligands to Nogo receptor-1 are summarized in Table 6.
We also performed ELISA binding assays using the Fab-phage 14D5.

rat NgR1 = target: T2, rat NgR1 (Rattus norvegicus, UniProt Q99M75); assay: Antibody binding to rat Nogo receptor-1
T2 sequence (Q99M75 27-447): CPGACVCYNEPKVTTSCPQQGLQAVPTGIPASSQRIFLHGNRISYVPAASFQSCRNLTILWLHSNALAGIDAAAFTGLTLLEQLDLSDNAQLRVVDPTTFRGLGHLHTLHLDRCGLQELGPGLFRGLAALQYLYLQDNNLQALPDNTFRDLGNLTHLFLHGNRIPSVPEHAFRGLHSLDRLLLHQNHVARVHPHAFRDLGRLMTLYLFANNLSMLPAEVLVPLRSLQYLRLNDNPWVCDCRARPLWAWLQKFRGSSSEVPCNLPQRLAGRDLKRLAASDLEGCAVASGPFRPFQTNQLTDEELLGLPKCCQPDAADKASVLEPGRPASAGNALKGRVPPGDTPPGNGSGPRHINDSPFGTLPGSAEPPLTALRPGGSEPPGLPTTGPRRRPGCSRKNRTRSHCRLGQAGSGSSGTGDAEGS

[1] = target: T3, rat NgR1 (sNgR310) fragments (Rattus norvegicus, UniProt Q99M75, A303T/C287S/E284G); assay: Western blot of acid/CNBr fragments of sNgR310 probed with 7E11; assay type: binding
T3 construct: made in house
T3 sequence (Q99M75 241-310 E284G/C287S/A303T): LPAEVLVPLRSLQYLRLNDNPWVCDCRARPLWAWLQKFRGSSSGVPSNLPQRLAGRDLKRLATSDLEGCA
Method: A recombinant fragment of the rat NgR1 that contains all 8 LRR domains and the N- and C-terminal caps (sNgR310) was treated with either acid or cyanogen bromide (CNBr) and separated the fragments by gel electrophoresis. Untreated sNgR310 migrates with an apparent molecular weight of 42 kDa. Acid treatment of sNgR310 produced two major cleavage products of 15 kDa (aa 27-aa 122) and 30 kDa (aa 123-aa 310). CNBr treatment generated three fragments, a 33/35 kDa doublet (aa 27-aa 229), which may represent fragments with heterogeneous glycosylation, a 10 kDa product (aa 241-aa 310), and an 11-amino-acid fragment (aa 230-aa 240), which is not retained on the gel. […] Both the 15 kDa acid fragment and the 35 kDa CNBr fragment contained the sequence LDLSDNAQLRVVDPTT (SEQ ID NO: 1), consistent with 7E11 binding to a single epitope on NgR1.

[2] = target: T4, sNogoR344-Fc (residues 26-344 of rat Nogo receptor-1) (Rattus norvegicus, UniProt Q99M75, A303T/C287S/C43R/E284G/T53A); assay: Inhibition of 125I-Nogo66 binding to sNogoR344-Fc on SPA beads; settings: curve-fit
T4 construct: amino acid residues 26-344 of rat Nogo receptor-1; made in house
T4 sequence (Q99M75 26-344 C43R/T53A/E284G/C287S/A303T): T1 sequence (Q99M75 26-344 C43R/T53A/E284G/C287S/A303T)
Method: as §1

mouse NgR1 = target: T5, mouse NgR1 (Mus musculus, UniProt Q99PI8); assay: Antibody binding to mouse Nogo receptor-1
T5 sequence (Q99PI8 27-447): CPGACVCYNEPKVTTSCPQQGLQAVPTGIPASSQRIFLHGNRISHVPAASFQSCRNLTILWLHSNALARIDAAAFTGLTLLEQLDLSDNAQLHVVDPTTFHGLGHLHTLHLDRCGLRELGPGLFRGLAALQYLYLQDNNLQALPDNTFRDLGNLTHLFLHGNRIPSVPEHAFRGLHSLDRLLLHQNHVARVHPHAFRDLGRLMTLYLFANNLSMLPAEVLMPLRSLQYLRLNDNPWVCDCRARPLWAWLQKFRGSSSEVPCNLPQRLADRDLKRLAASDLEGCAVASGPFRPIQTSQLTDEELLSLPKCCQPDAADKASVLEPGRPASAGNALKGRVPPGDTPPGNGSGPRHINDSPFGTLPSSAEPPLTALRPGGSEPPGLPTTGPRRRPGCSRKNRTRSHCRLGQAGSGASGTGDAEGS

[3] = target: polypeptide p-617 (SEQ ID NO: 1) (Rattus norvegicus, UniProt Q99M75); assay: Specificity ELISA on polypeptide p-617; assay type: binding
Excerpt: To determine the specificity of the monoclonal and Fab-phage antibodies produced in Examples 1 and 2, we performed an ELISA using a panel of Nogo receptor-1 polypeptides. The panel consisted of sNogoR310-Fc (a fusion protein comprising amino acids 26-310 of rat Nogo receptor-1 and a rat Fc fragment), sNogoR344-Fc (see supra), polypeptide p-617 (SEQ ID NO: 1), polypeptide p-618 (a 19-amino acid polypeptide from the LRR7 region of rat Nogo receptor-1; FIG. 2; SEQ ID NO: 11) and polypeptides p-4 and p-5 (polypeptides from the LRR5 and LRRCT regions of Nogo receptor-1, respectively). Ovalbumin and BSA were used as controls.

- inhibition of binding of MAG to sNogoR344-Fc (MAG + sNogoR344-Fc): inhibited binding
- percent displacement, MAG + sNogoR344-Fc (MAG + sNogoR344-Fc; 30 nM antibody): 30 nM (60%)
- EC50 (MAG + sNogoR344-Fc; curve-fit analysis): 500 nM
- binding to rat NgR1 (rat NgR1): bound; also recorded: binds well
- 7E11 binding to 10 kDa CNBr fragment (aa 241-aa 310) [1]: did not bind
- IC50 [2]: 400 nM
- binding to mouse NgR1 (mouse NgR1): poorly
- binding to polypeptide p-617 [3]: specifically bound
B1: 7E11: murine monoclonal anti-Nogo receptor-1 antibody, IgG1 kappa, ATCC PTA-4587; immunogen rat Nogo receptor-1 residues 110-125 (antibody, V domains shown)
VH: VQLQESGAELVMPGASVKMSCKASGYTFTDYWMHWVKQRPGQGLEWIGAIDPSDSYSSYNQNFKGKATLTVDGSSSTAYMQLSSLTSEDSAVYYCARRITEAGAWFAYWGQGTTVT
VL: DVVMTQTPLSLPVSLGDQASISCRSSQSLVHSNGNTYLHWYLQKPGQSPKLLIYKVSNRFSGVPDRFSGSGSGTDFTLKISRVDAEDLGVYFCSQSTHVPFTFGGGTKLEIKRADAAPTVSISHH
